Test [1] addresses T1, Cys-hCE3C peptide (CQPKYEYSL), hCE3C peptide of human Nav1.7 with an added N-terminal Cys (human, also: biotin-labeled, site not given here).
T1 construct: Residues 1424-1431 of human Nav1.7 (UniProtKB Q15858) plus an N-terminal Cys; also called immunogenic peptide; immunogen peptide
T1 peptide: CQPKYEYSL
As to the kind of experiment: ELISA, hybridoma supernatant on anti-mouse IgG plate, biotin-labeled Cys-hCE3C + streptavidin-HRP. On the procedure: Three days after the final immunization, the spleen was removed, splenocytes and mouse myeloma cells (p3x6363-Ag8, Tokyo Oncology Institute) were fused by the PEG-method, and selection was made in a medium containing hypoxanthine, aminopterin and thymidine. Human Nav1.7-binding antibodies were identified by performing ELISA against immunogenic peptides using hybridoma culture supernatants. Specifically, hybridoma culture supernatant was added to an anti-mouse IgG antibody immobilized plate, washed twice with ELISA wash buffer, and biotin-labeled immunogenic peptide (Cys-hCE3C) and Streptavidin-HRP (manufactured by PIERCE) was added and reacted overnight at 4° C. After washing twice with ELISA wash buffer and developing color by adding TMB-Substrate Chromogen (manufactured by Thermo Fisher Scientific), the reaction was stopped with an equal volume of 0.5N sulfuric acid, and the absorbance at 450 nm was measured.

Test [2] has as its target T2, epitope peptide Cys-CE3C long (also: biotin label, site not given here).
T2 peptide: CSVNVDKQPKYEYSL
As to the kind of experiment: competitive ELISA (Example 5). On the procedure: A diluted solution of the obtained recombinant humanized antibody, a biotin-labeled immunogen peptide, and Streptavidin-HRP (manufactured by PIERCE) were added to an anti-human IgG antibody-immobilized plate, and reacted overnight at 4° C. […] Next, a recombinant human antibody at the dilution rate, a biotin-labeled immunogen peptide, and Streptavidin-HRP (manufactured by PIERCE) were added. At the same time, a dilution series of unlabeled immunogenic peptide was added and reacted overnight at 4° C. After washing twice with ELISA wash buffer, TMB-Substrate Chromogen (manufactured by Thermo Fisher Scientific) was added to develop color, the reaction was stopped with an equal amount of 0.5N sulfuric acid, and the absorbance at 450 nm was measured. The concentration of the unlabeled peptide which attenuated the signal of the biotin-labeled peptide by half was defined as the affinity (IC50).

Where no end group is shown, it is not given here.

B1: mouse monoclonal antibody 15H11 (antibody, V domains shown)
VH: EVQLQQSGPELLKPGASVKISCKASGYTFTDYNMHWVKQSHGRSLEWIGRINPKNGVINSNEKFKDKATLTVDKSLSTAYMDLRSLTSEDSAVYFCAPSYYGGNTDAYWGHGTLVTVSA
VL: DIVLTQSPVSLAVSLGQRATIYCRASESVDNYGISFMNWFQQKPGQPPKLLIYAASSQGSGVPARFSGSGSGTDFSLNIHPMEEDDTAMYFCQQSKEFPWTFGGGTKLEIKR
notes: Mouse hybridoma antibody; also called mouse 15H11
Take B1: the binding result in test [1] is “binds”.

B2: h15H11 light chain CDR mutant W96Y (antibody, human IgG4 S228P, kappa, name in Kabat numbering, V domains shown)
VH: QVQLVQSGSELKKPGASVKVSCKASGYTFTDYNMHWVRQAPGRSLEWMGRINPKNGVINSNEKFKDRFVFSLDTSVSTAYLQISSLKAEDTAVYYCAPSYYGGNTDAYWGQGTLVTVSS
VL: DIVLTQSPASLAVSPGQRATITCRASESVDNYGISFMNWFQQKPGQPPKLLIYAASSQGSGVPARFSGSGSGTDFTLTINPMEANDTANYYCQQSKEFPYTFGGGTKVEIKR
notes: hIgG4Pro/hIgK
As to B2, the binding result in test [2] is “no binding (tested: below the detection limit)”.

The values above are taken from US20250163145A1 (SHIONOGI, published 2025).
